Tests used:
[1] = test system: Ac-4-trans-L-HypSSChgQ-SChg-(4-O-lactyl)-dAc-VIN
[2] = test system: Ac-4-trans-L-HypSSChgQS-(4-O-Ala)-(dAc)-VIN
[3] = test system: Ac-AbuSSChgQ-SS-(4-O-P)-dAc-VIN
[4] = test system: 4-O-(Ac-SSChgQ-SS-P)-dAc-VIN
[5] = test system: Ac-4-trans-L-HypSSChgQSChg-(4-O-glycolyl)-VIN
[6] = test system: 4-O-(Ac-4-trans-L-HypSSChgQS-Glycine)-(dAc)-VIN
[7] = test system: 4-O-(Ac-SSChgQ-SS-4-trans-L-Hyp)-dAc-VIN
[8] = test system: des-Acetylvinblastine-4-O-(N-Acetyl-4-trans-L-Hyp-Ser-Ser-Chg-Gln-Ser-Ser-Pro) ester
[9] = test system: Ac-4-trans-L-HypSSChgQSS-(4-O-Sar)-(dAc)-VIN
[10] = test system: (4-O)-Ac-(4-trans-L-Hyp)SSChgQ-SL-(dAc)-VIN
[11] = test system: 4-O-(Ac-SSChgQS-Gly)-(dAc)-VIN
[12] = test system: Ac-AbuSSChgQ-S(dS)-(4-O-P)-dAc-VIN
[13] = test system: 4-O-(Ac-4-trans-L-HypSSChgQSS-Sar)-(dAc)-VIN
[14] = test system: 4-O-(Ac-4-trans-L-HypSSChgQSV-glycolyl)-VIN
[15] = test system: 4-O-(Ac-4-trans-L-HypSSChgQSL-lactyl)-(dAc)-VIN
[16] = test system: 4-O-((2-OH)Ac-Abu-SSChgQ-S-P)-dAc-VIN
[17] = test system: 4-O-(Ac-4-trans-L-HypSSChgQ-SS-4-trans-L-Hyp)-dAc-VIN
[18] = test system: 4-O-(Ac-Abu-SSChgQ-SP)-dAc-VIN

For free prostate specific antigen (PSA), the Time to 50% Substrate Cleavage by York PSA [1] was 14 min, the “Time to 50% Substrate Cleavage by York PSA (Min)” value [2] was 23 (prod converts to 4-O-A-dAc-VIN) and the Time to 50% Substrate Cleavage by York PSA [3] was 7 min. For the same substance, the Time to 50% Substrate Cleavage by York PSA [4] was 15 min, the Time to 50% Substrate Cleavage by York PSA [5] was 12 min and the Time to 50% Substrate Cleavage by York PSA [6] was 30 min. It also gave a Time to 50% Substrate Cleavage by York PSA [7] of 22 min, a Time to 50% Substrate Cleavage by York PSA [8] of 17 min and a Time to 50% Substrate Cleavage by York PSA [9] of 15 min. It also gave a Time to 50% Substrate Cleavage by York PSA [10] of 35 min, a Time to 50% Substrate Cleavage by York PSA [11] of 55 min and a Time to 50% Substrate Cleavage by York PSA [12] of 60 min. It also gave a Time to 50% Substrate Cleavage by York PSA [13] of 32 min, a Time to 50% Substrate Cleavage by York PSA [14] of 8 min and a Time to 50% Substrate Cleavage by York PSA [15] of 10 min. For the same substance, the Time to 50% Substrate Cleavage by York PSA [16] was 110 min, the Time to 50% Substrate Cleavage by York PSA [17] was 13 min and the Time to 50% Substrate Cleavage by York PSA [18] was 80 min.

From patent publication US20040081659
